# Test results reported in article PMC4275181.
# What was measured:
# Assay in all cases: filter binding
# [1] = tested on: Sc mtTyrRS (Saccharomyces cerevisiae); conditions: 100 mM KCl, 5 mM MgCl2, 20 mM Tris-HCl pH 7.5, 5 mM DTT, 0.1 mg/ml BSA, 10% glycerol, 5 pM RNA, 30 min, 25C or 37C; nitrocellulose/nylon filter
# [2] = target: T1, CYT-18 NTDs (Neurospora crassa) (UniProt P12063); conditions: 100 mM KCl, 5 mM MgCl2, 20 mM Tris-HCl pH 7.5, 5 mM DTT, 0.1 mg/ml BSA, 10% glycerol, 5 pM RNA, 30 min, 25C or 37C, nitrocellulose/nylon filter
# T1 sequence: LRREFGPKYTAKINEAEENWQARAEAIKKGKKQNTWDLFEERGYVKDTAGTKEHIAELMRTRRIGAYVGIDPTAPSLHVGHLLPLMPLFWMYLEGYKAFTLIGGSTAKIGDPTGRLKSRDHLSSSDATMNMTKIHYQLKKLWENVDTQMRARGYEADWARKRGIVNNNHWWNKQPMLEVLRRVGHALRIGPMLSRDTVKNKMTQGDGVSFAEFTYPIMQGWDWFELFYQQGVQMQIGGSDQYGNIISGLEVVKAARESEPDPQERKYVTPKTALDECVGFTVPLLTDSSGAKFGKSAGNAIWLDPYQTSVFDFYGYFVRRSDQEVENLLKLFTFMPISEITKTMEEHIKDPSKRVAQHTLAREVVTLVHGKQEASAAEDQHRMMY
# [3] = target: T2, Sc CTD (Saccharomyces cerevisiae) (UniProt P48527); conditions: 25C; n=1.8; 100 mM KCl, 5 mM MgCl2, 20 mM Tris-HCl pH 7.5, 5 mM DTT, 0.1 mg/ml BSA, 10% glycerol, 5 pM RNA, 30 min, 25C or 37C; nitrocellulose/nylon filter
# T2 sequence: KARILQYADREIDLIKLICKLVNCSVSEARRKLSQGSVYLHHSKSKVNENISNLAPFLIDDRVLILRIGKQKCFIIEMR
Substance,Kd [1],Kd [2],"K half ([2]; 25C, n=1.6)",K half [3],"Kd ([2]; 25C, low end of stated range, strongest group I intron)","Kd ([2]; 37C, low end of stated range, strongest group I intron)","Kd ([2]; 25C, high end of stated range, weakest group I intron)","Kd ([2]; 37C, high end of stated range, weakest group I intron)"
"Ll.LtrB group II intron RNA (dORF, branch-point nucleotide deleted)",0.44 µM,0.44 µM,240 nM,110 nM,–,–,–,–
Nc ND1m group I intron RNA,–,–,–,–,0.2 µM,0.44 µM,–,–
Nc mt LSU group I intron RNA,0.43 µM,–,–,–,–,–,0.59 µM,0.74 µM
